The Immune Epitope Database (IEDB)
Blank lines part the entries; values can stand above or below the sequence they belong to.

What was measured:
HLA-B*15:02 = assay: IEDB peptide-MHC binding, purified MHC/direct/fluorescence; filed as Kd, often an IC50 or EC50 that approximates it; ≥ and ≤ were set here for values at or beyond the usual limits of such assays
HLA-B*46:01 = assay: as above
HLA-A*30:02 = assay: IEDB peptide-MHC binding, purified MHC/competitive/radioactivity; filed as Kd, often an IC50 or EC50 that approximates it; ≥ and ≤ were set here for values at or beyond the usual limits of such assays; settings: source organism: Dengue virus 2 Jamaica/1409/1983
HLA-A*01:01 = assay: IEDB peptide-MHC binding, purified MHC/direct/fluorescence; filed as Kd, often an IC50 or EC50 that approximates it; ≥ and ≤ were set here for values at or beyond the usual limits of such assays
HLA-A*02:01 [1] = assay: as above
HLA-A*02:11 = assay: as above; settings: source organism: Vibrio parahaemolyticus RIMD 2210633
HLA-A*02:12 = assay: as above
HLA-A*02:19 = assay: as above
HLA-A*02:50 = assay: as above
HLA-A*03:01 = assay: as above
HLA-A*11:01 = assay: as above
HLA-A*23:01 = assay: as above
HLA-A*24:03 = assay: as above
HLA-A*26:01 = assay: as above
HLA-A*26:03 = assay: as above
HLA-A*29:02 = assay: as above
HLA-A*30:01 [2] = assay: as above; settings: source organism: Vibrio parahaemolyticus RIMD 2210633
HLA-B*07:02 = assay: as above
HLA-B*08:01 [3] = assay: as above
HLA-B*15:01 = assay: as above
HLA-B*27:05 = assay: as above
HLA-B*39:01 [4] = assay: as above; settings: source organism: Vibrio parahaemolyticus RIMD 2210633
HLA-B*40:01 = assay: as above
HLA-B*44:02 = assay: as above
HLA-B*48:01 = assay: as above
HLA-B*51:01 = assay: as above
HLA-B*57:01 = assay: as above
HLA-B*58:01 = assay: as above
HLA-A*31:01 [5] = assay: IEDB peptide-MHC binding, purified MHC/competitive/fluorescence; filed as Kd, often an IC50 or EC50 that approximates it; ≥ and ≤ were set here for values at or beyond the usual limits of such assays; settings: source organism: Vibrio parahaemolyticus AN-5034
HLA-A*69:01 = assay: as above
HLA-B*15:17 = assay: as above
HLA-A*26:02 [6] = assay: IEDB peptide-MHC binding, purified MHC/direct/fluorescence; filed as Kd, often an IC50 or EC50 that approximates it; ≥ and ≤ were set here for values at or beyond the usual limits of such assays; settings: source organism: Escherichia coli O157:H7 str. EC869
HLA-A*31:01 [7] = assay: as above
HLA-B*18:01 = assay: as above; settings: source organism: Escherichia coli O157:H7 str. EC869
HLA-B*38:01 = assay: as above; settings: source organism: Escherichia coli O157:H7 str. EC869
HLA-B*35:01 = assay: as above; settings: source organism: Hepatovirus A
HLA-C*06:02 = assay: as above; settings: source organism: Hepatovirus A
HLA-C*12:03 = assay: as above; settings: source organism: Hepatovirus A
HLA-A*02:01 [8] = assay: IEDB peptide-MHC binding, purified MHC/competitive/fluorescence; filed as Kd, often an IC50 or EC50 that approximates it; ≥ and ≤ were set here for values at or beyond the usual limits of such assays; settings: source organism: Hepatovirus A
HLA-A*02:03 = assay: as above; settings: source organism: Hepatovirus A
HLA-A*26:02 [9] = assay: as above; settings: source organism: Hepatovirus A
HLA-A*30:01 [10] = assay: as above; settings: source organism: Hepatovirus A
HLA-A*68:02 = assay: as above; settings: source organism: Hepatovirus A
HLA-B*08:01 [11] = assay: as above; settings: source organism: Hepatovirus A
HLA-B*15:09 = assay: as above; settings: source organism: Hepatovirus A
HLA-B*39:01 [12] = assay: as above; settings: source organism: Hepatovirus A
[13] = source organism: Vibrio parahaemolyticus
[14] = source organism: Vibrio parahaemolyticus RIMD 2210633
[15] = source organism: Vibrio parahaemolyticus AN-5034
[16] = source organism: Escherichia coli O157:H7
[17] = source organism: Escherichia coli O157:H7 str. EC869

Sequence: SQHNYRPGY
- Kd (HLA-B*15:02; source organism: Dengue virus): 0.282 µM
- Kd (HLA-B*46:01; source organism: Dengue virus): ≥ 20 µM
- Kd (HLA-A*30:02): 0.777 µM

Sequence: DTWHGFKNM
- Kd (HLA-A*01:01; [13]): ≥ 20 µM
- Kd (HLA-A*02:01 [1]; [13]): ≥ 20 µM
- Kd (HLA-A*02:11): ≥ 20 µM
- Kd (HLA-A*02:12; [14]): ≥ 20 µM
- Kd (HLA-A*02:19; [14]): ≥ 20 µM
- Kd (HLA-A*02:50; [14]): ≥ 20 µM
- Kd (HLA-A*03:01; [13]): ≥ 20 µM
- Kd (HLA-A*11:01; [13]): ≥ 20 µM
- Kd (HLA-A*23:01; [14]): ≥ 20 µM
- Kd (HLA-A*24:03; [14]): ≥ 20 µM
- Kd (HLA-A*26:01; [14]): 0.171 µM
- Kd (HLA-A*26:03; [14]): 0.011 µM
- Kd (HLA-A*29:02; [14]): ≥ 20 µM
- Kd (HLA-A*30:01 [2]): ≥ 20 µM
- Kd (HLA-B*07:02; [13]): ≥ 20 µM
- Kd (HLA-B*08:01 [3]; [14]): ≥ 20 µM
- Kd (HLA-B*15:01; [13]): ≥ 20 µM
- Kd (HLA-B*27:05; [13]): ≥ 20 µM
- Kd (HLA-B*39:01 [4]): ≥ 20 µM
- Kd (HLA-B*40:01; [13]): ≥ 20 µM
- Kd (HLA-B*44:02; [14]): ≥ 20 µM
- Kd (HLA-B*46:01; [13]): ≥ 20 µM
- Kd (HLA-B*48:01; [13]): ≥ 20 µM
- Kd (HLA-B*51:01; [14]): ≥ 20 µM
- Kd (HLA-B*57:01; [13]): ≥ 20 µM
- Kd (HLA-B*58:01; [13]): ≥ 20 µM
- Kd (HLA-A*31:01 [5]): ≥ 20 µM
- Kd (HLA-A*69:01; [15]): 0.0223 µM
- Kd (HLA-B*15:17; [15]): ≥ 20 µM

- Kd (HLA-A*01:01; [16]): ≥ 20 µM
- Kd (HLA-A*02:01 [1]; [16]): ≥ 20 µM
- Kd (HLA-A*02:12; [17]): ≥ 20 µM
- Kd (HLA-A*02:19; [17]): ≥ 20 µM
- Kd (HLA-A*02:50; [17]): ≥ 20 µM
- Kd (HLA-A*03:01; [16]): ≥ 20 µM
- Kd (HLA-A*11:01; [16]): ≥ 20 µM
- Kd (HLA-A*23:01; [17]): ≥ 20 µM
- Kd (HLA-A*24:03; [17]): ≥ 20 µM
- Kd (HLA-A*26:01; [17]): 0.004 µM
- Kd (HLA-A*26:02 [6]): ≤ 0.001 µM
- Kd (HLA-A*26:03; [17]): ≤ 0.001 µM
- Kd (HLA-A*29:02; [17]): ≥ 20 µM
- Kd (HLA-A*31:01 [7]; [16]): ≥ 20 µM
- Kd (HLA-B*07:02; [16]): ≥ 5 µM
- Kd (HLA-B*08:01 [3]; [17]): ≥ 20 µM
- Kd (HLA-B*15:01; [16]): 1 µM
- Kd (HLA-B*18:01): ≥ 20 µM
- Kd (HLA-B*27:05; [16]): ≥ 20 µM
- Kd (HLA-B*38:01): ≥ 20 µM
- Kd (HLA-B*40:01; [16]): ≥ 20 µM
- Kd (HLA-B*44:02; [17]): ≥ 20 µM
- Kd (HLA-B*46:01; [16]): ≥ 20 µM
- Kd (HLA-B*48:01; [16]): ≥ 20 µM
- Kd (HLA-B*51:01; [17]): ≥ 20 µM
- Kd (HLA-B*57:01; [17]): ≥ 20 µM
- Kd (HLA-B*58:01; [16]): ≥ 20 µM
- Kd (HLA-A*69:01; source organism: Escherichia coli B171): 0.0006 µM
Sequence: ETIGLVRAL

Sequence: YMYAVSGAL
- Kd (HLA-A*01:01; source organism: Hepatovirus A): ≥ 20 µM
- Kd (HLA-A*11:01; source organism: Hepatovirus A): ≥ 20 µM
- Kd (HLA-A*26:03; source organism: Hepatovirus A): ≥ 20 µM
- Kd (HLA-A*31:01 [7]; source organism: Hepatovirus A): ≥ 20 µM
- Kd (HLA-B*07:02; source organism: Hepatovirus A): ≥ 20 µM
- Kd (HLA-B*15:01; source organism: Hepatovirus A): 0.0116 µM
- Kd (HLA-B*15:02; source organism: Hepatovirus A): 0.005 µM
- Kd (HLA-B*27:05; source organism: Hepatovirus A): ≥ 20 µM
- Kd (HLA-B*35:01): 0.449 µM
- Kd (HLA-B*46:01; source organism: Hepatovirus A): 1.77 µM
- Kd (HLA-B*48:01; source organism: Hepatovirus A): 0.0156 µM
- Kd (HLA-B*57:01; source organism: Hepatovirus A): ≥ 20 µM
- Kd (HLA-B*58:01; source organism: Hepatovirus A): ≥ 20 µM
- Kd (HLA-C*06:02): ≥ 20 µM
- Kd (HLA-C*12:03): 0.231 µM
- Kd (HLA-A*02:01 [8]): 0.0037 µM
- Kd (HLA-A*02:03): 0.0016 µM
- Kd (HLA-A*26:02 [9]): 4.58 µM
- Kd (HLA-A*30:01 [10]): 4.14 µM
- Kd (HLA-A*68:02): 2.12 µM
- Kd (HLA-B*08:01 [11]): 0.83 µM
- Kd (HLA-B*15:09): 0.322 µM
- Kd (HLA-B*15:17; source organism: Hepatovirus A): 0.181 µM
- Kd (HLA-B*39:01 [12]): 0.0015 µM
